Consider 3 molecules from US5661003A, “Water channel” (Marumo; Fumiaki, priority 1992, dated 1997).

In one assay the target is T1, WCH-1 water channel (Rattus norvegicus, UniProt P34080).
T1 construct: The longest open reading frame encodes a 271-amino acid protein (Mr 28928); expressed in transfected cells; host or cells: Xenopus laevis oocytes injected with cRNA transcribed from WCH-1 in pSPORT
T1 sequence (P34080 1-271): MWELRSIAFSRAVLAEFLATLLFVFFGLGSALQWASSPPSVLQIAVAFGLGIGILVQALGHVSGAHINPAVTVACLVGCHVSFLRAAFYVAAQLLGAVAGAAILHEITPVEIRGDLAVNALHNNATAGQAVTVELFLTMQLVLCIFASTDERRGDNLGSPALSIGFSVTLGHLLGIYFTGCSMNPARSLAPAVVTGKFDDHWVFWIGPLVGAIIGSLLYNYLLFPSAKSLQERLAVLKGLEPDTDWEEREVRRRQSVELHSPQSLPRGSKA
Kind of assay: Effect of mercurial sulfhydryl reagent and reducing agent on Pf of WCH-1-injected oocytes. The class given is cell-based. How it is done: (§1) Capped cRNA was synthesized from WCH-1 in pSPORT vector using T7 RNA polymerase after linearization of the pSPORT vector. Oocytes were obtained from female Xenopus laevis and prepared as described in Dascal, N. CRC Crit. Rev. Biochem. 22, 317-373 (1987), then injected with […] or 20 ng of WCH-1 RNA (1 μg/μL) and incubated at 18° C. […] Oocytes were viewed by light transmitted through an Olympus phase-contrast microscope and imaged on a Hamamatsu SIT camera connected to ARGUS-200 image processing system. Images were obtained and stored at 20-s intervals.
(§2) Osmotic water permeability (Pf) was determined from an initial slope of a time curve of V/Vo (d (V/Vo)/dt), initial oocyte volume (Vo =9×10^-4 cm^3), initial oocyte surface area (S=0.045 cm^2), the molar volume of water (Vw =18 cm^3 /mol) by:
(§3) Pf=[Vo×d (V/Vo)/dt]/[S×Vw ×(osmin
To examine the effects of mercurial sulfhydryl reagents, oocytes were incubated in Barth's buffer containing 0.3 mM HgCl2 for 5 minutes prior to Pf measurements. The recovery of the inhibition by reducing agents was examined by 15 minutes incubation in a Barth's buffer containing 5 mM β-mercaptoethanol following 5-minute incubation in HgCl2.

In a further assay the test system is Xenopus oocytes. Kind of assay: Osmotic water permeability of Xenopus oocytes injected with WCH-1 RNA (videomicroscopy of osmotic volume increase). The class given is cell-based, Xenopus laevis. As for the experimental part:
To determine the osmic water permeability of oocytes injected with the WCH-1 transcript, volume increase caused by an imposed osmotic gradient was measured using videomicroscopy (Zhang, R. & Verkman, A. S. Am. J. Physiol. 260, C26-C34 (1991)).
as §1
Oocytes images were processed as described in Zhang, R. & Verkman, A. S. Am. J. Physiol. 260, C26-C34 (1991) and the projection area of the oocytes was calculated by automatic summation. Relative volume (V/Vo) was calculated from the area at time 0 (Ao) and at time t (A) by:
as §2, §3

For `[Cl][Hg][Cl]` [HgCl2], on WCH-1 water channel (0.3 mM HgCl2, five minutes, Pf without HgCl2 83.9±18.2), the “Pf in WCH-1-injected oocytes after incubation in HgCl2” value was 44.5±3.6 ×10^-4 cm/sec. Take `OCCS` [B-mercaptoethanol, β-mercaptoethanol]: the “Pf in WCH-1-injected oocytes after recovery with reducing agent” value at WCH-1 water channel (5 mM mercaptoethanol for 15 minutes following incubation in 0.3 mM HgCl2) is listed as 63.1±25.8 ×10^-4 cm/sec.

B1: WCH-1: vasopressin-regulated water channel localized in the kidney collecting tubule; expressed in oocytes by injection of its capped cRNA (protein, UniProt P34080 1-271, looked up)
Aquaporin-2: MWELRSIAFSRAVLAEFLATLLFVFFGLGSALQWASSPPSVLQIAVAFGLGIGILVQALGHVSGAHINPAVTVACLVGCHVSFLRAAFYVAAQLLGAVAGAAILHEITPVEIRGDLAVNALHNNATAGQAVTVELFLTMQLVLCIFASTDERRGDNLGSPALSIGFSVTLGHLLGIYFTGCSMNPARSLAPAVVTGKFDDHWVFWIGPLVGAIIGSLLYNYLLFPSAKSLQERLAVLKGLEPDTDWEEREVRRRQSVELHSPQSLPRGSKA
In the case of B1, in the assay with Xenopus oocytes (WCH-1-injected vs water-injected oocytes), the “Pf in WCH-1-injected oocytes relative to Pf in water-injected oocytes” value was found to be 3.5 times. In addition, the “Osmotic water permeability (Pf)” value in the assay on Xenopus oocytes (oocytes injected with 20 ng WCH-1 RNA, 24 h incubation, transfer from 200 mOsm to 70 mOsm Barth's buffer, 24° C., mean±SEM) is 83.9±18.2 ×10^-4 cm/s. In addition, the “Oocytes ruptured after transfer into the hypotonic solution” value with Xenopus oocytes (within 10 minutes, none of water-injected oocytes ruptured for more than 60 minutes) is reported as “ten out of eleven”.
